The target in experiment [1] is p-Akt2 (phospho serine / threonine kinase) (UniProt P31751 1-481).
Experiment [2] deals with L1R, vaccinia virus L1R myristyl protein (vaccinia virus, UniProt P07612 1-250).
Experiment [3] deals with T1, IL17-F (Interleukin member of the highly homologous IL-17 family) (UniProt Q96PD4 31-163).
T1 sequence (looked up): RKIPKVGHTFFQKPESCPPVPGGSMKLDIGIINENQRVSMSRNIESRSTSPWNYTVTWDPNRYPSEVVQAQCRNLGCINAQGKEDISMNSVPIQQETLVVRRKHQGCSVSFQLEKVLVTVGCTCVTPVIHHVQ

In the case of YYTYT [Cy(YYTYT-click)], in experiment [1], a half-maximal effect (EC50) was put at 122 nM.

On to DARNI [Cy(DARNI-click)], for which, in experiment [2], the EC50 (commonly the concentration that produces a half-maximal response) turned out to be 875 nM. RRATS [Cy(RRATS-click)]: in experiment [3], the EC50 is 66 nM.

For the origin of these results see publication PMC4890538 (Angewandte Chemie (International ed. in English), 2015).
